The record followed here is the DeepSol protein solubility set.

The nature of this data set: soluble on expression in E. coli; label from the status in PepcDB or PDB records.
Consider “MTERKLVAERNFEVNGYDIDAMGIVSNIVYIRWFEDLRTDFINQYMPYSDMMNQQISPILMNTEAEYKTPITIHDKPVGRCYLVKASKLRWEFEFEIESEDAVHCIGKQSGTFFDLQKKKVTRLPEVFQTILSLEHHHHHH”, for which the “soluble on expression in E. coli” value was “not soluble”.
Turning to “MGSDKIHHHHHHMAAINAAVLQALRTMVRSEFQNALTKTESLYLKIASVVPSNTKSNTYGWLGSMPTMREWIGARVINSIKEHGYSITNRTFETTIGICRDDVEDEVIGTYKPMVQALAQEGEEFPDDLVFELLADGFSTLCYDGQNFFDTDHPVNEKHDGTGDNVSVANMALDAAYTGEPWFLLDTTRPLKPVIFQERRKLDLNTLFNPTDPAVWTNNEFQFGTDMRCEAGFGFWQMAFANKRALNADNLWDTIEKMKAFKRDGGKKLKIRPSLLVVPSSLEQAATKLLTRELIDENGTTVENELKGKVELLVVPQL”, the “soluble on expression in E. coli” value was “not soluble”.
“MGSDKIHHHHHHMKTEITLLKGETVMVEPKEFLKAGQAFHGHKCPAMPMGLRVGAAAMNKLGVERSKDGQLLDLVELGDGHCATCFADGIQMITGCTFGKGNIKKLHYGKWGVTLIDTQTGRAVRVTPKAEAMLANKKSEFFTEYRMKHIPASKVPAEVVEPLVEKVMNAPDDMLLNIGDVFDYEVPPKVESFSGFVCDICGEMVVEGYGRPLDDKKVCQPCYEKAQREH”: the “soluble on expression in E. coli” value was “not soluble”.
The entry for “YRFSDFEMGLLQTHAEMAERMVNEIGGEHLEIRVLAEITELLQERNEELSPFLTRVLSMATELIGADTGSIAIVQERDGEKWLVVEDEEGTIVGAKNKSWLKKYIPPFRIGGHELPAEERSLTGYVAWSKQPKIIAHVADEQGGEGFHRSMHELIKSEIAVPIVCDDEVIAVVCLNSLKPAWFTEEHKRILQIIDRLTSRHISDVQRIERLEGEVTRLKTDVAYKDPQISSYR” is “not soluble”; for “MSNFISPVYEIKSIPIEKISPNDYNPNSVAPPEMKLLYDSIKSDGYTMPIVCYYDKEEDRYSIVDGFHRYRIMLDYSDIYERESGRLPVSVIDKSLDYRMASTIRHNRARGSHD” it is “not soluble”.
The entry for “DIECPTCGRPMGIRTASTGVFLGCSGYALPPKERCKTTINLGDEEGIINVLEEDVETAALRAKKRCPICETAMDAYLIDDKRKMHVCGNNPNCEGYVVEYGEFKVKGYDGPVVECDKCGSDMVLKNGRFGKYMDCTSETCKNTRKILK” is “not soluble”; for “MMMGEVQSLPSCGLHPRLLDALTLALAARPQEKAPGRYELQGDNVFMNVMQLTTQMPAEKKAELHEQYIDIQLLLTGVERIAFGMSGAARQCEEMHVEEDYQLCSQIVDEQTITLQAGMFAVFMPGEPHKPGCAVGEPDDIKKVVVKVRASLLAA” it is “not soluble”.
The entry for “MLLEIKDLVYKASDRIILDHISLKVDKGESIAIIGPSGSGKSTFQKQICNLFSPTSGELYFKGKPYNDYDPEELRQRISYLMQQSDLFGETIEDNMIFPSLARNDKFDRKRAKQLIKDVGLGHYQLSSEVENMSGGERQRIAIARQLMYTPDILLLDESTSALDVNNKEKIENIIFKLADQGVAIMWITHSDDQSMRHFQKRITIVDGQISNTEELNQHE” is “soluble”.
Turning to “MISVFDIFKVGIGPSSSHTVGPMKAAKQFVDELSEHKLLAKTDRLVADVYGSLSLTGRGHSTDIAIVMGLMGYLPDNVDIERIDSVIQQVKQEHKLVLAEANPAETKIIDFDFYNDMPFHSTFLARHENGMTLKAFAGETLLYEKTFYSIGGGFIVDDEHFEQ”, the “soluble on expression in E. coli” value is “not soluble”.
Under “MGSDKIHHHHHHMKRTVTVKLQPSKAQEETLKELAIISSKAWNKVNYLRRQEFFEGKPVDFLKTEKIVYEEFKSEIGSATVQQICRKNADAWRSFFSLIRSKRNGELPKWFKPKPPEYVKEGGLIILRNDQYKIEGNKLILKGLGKFKRLEVQFKGRIHLKGKQGKLEITYDPIKRKWYAHISYTVKEKLYGGEWVEVPRQPLGNLSAGIDLGVNNLMAVYVENGESFLVNGRPLKSIDFYWRERIADYQSKLNKSGAKKSRKLSRMHEKAKLQAKHYINTAVRQTVERLYHLGVSRIVVGYPKGISRNSNRGKKQNYLLSHVWRFNYVIKRLREVAEEYGIQVLIVDEAFTSKLCPVCGKPHKGQGLFEDYLSVPRRGLPLMPTWLELSTF” stands “not soluble”; under “MSFETISVIGLGYIGLPTAAAFASRKKKVIGVDVNAHAVETINRGAIHIVEPDLDKVVKIAVEGGYLQAVTKPQAADAFLIAVPTPFKGDHEPDMIFVESAAKSIAPVLKKGDLVILESTSPVGATEQMAQWLAEARPDLSFPQQAGEAADINIAYCPERVLPGQVMVELIQNDRVIGGMTPKCSARASALYKIFLEGECVVTNSRTAEMCKLTENSFRDVNIAFANELSLICDEQGINVWELIRLANRHPRVNILQPGPGVGGHCIAVDPWFIVSQNPQLARLIHTARLVNDGKPLWVVDRVKAAVADCLAASDKRASEVKIACFGLAFKPDIDDLRESPAVGVARLIAEWHVGETLVVEPNVEQLPKSLMGLVTLKDTATALQQADVLVMLVDHKQFKAIKPEDIKQQWIVDTKGVWR”, “not soluble”; under “MINLKGITKSFQNGAESIQILHGIDVTLNQGEFTSIMGPSGSGKSTLMNIIGCLDKPTTGTYELAGQNISNMSKTELAHVRNKEIGFVFQNFMLLPRLSALQNVELPLIYAGVDKKERRERSLAALTKVGLADRATHLPNELSGGQKQRVAVARAIVNNPKFILADEPTGALDTKTSTQIMDLFYELNKQGSTIIMITHDREIGEAAARQIVIRDGNIVQDWRG”, “not soluble”.
Under “SNASYETSQHNLDAVEAVLSRLQKQTGEMAAYMVPVGYRALCVSQRESMQALRCSFVQGQSQPLLRGASSKVMLAYMPAARCEKILRYFGEDPTLDKWQSEFEKIRRHGYAVSTSEIDPGVSGISAPVMKGSKLIGAISVMAPAHRVESNKQRIILHVLQAARAL” stands “soluble”; under “GPGSMEDRNSVASSVFFTGVSLVIEKEKLRQHFESVGHVVSFTIFGPAPGKDFRYGIVGYMDEKTAEEAIRRLDGTTFGERAMRVTAARSTTLHGPLRAGPGGGGSGPADHSTFRKRPREPYPSLNSSRPPYGPGMGRGGGMRAPIARVSFSAQQQQKQEQSQQPTTDKAGRETMQFPRFYTDPILGRDGSLVLDALRGMATEEAYSAVEQLRVLALERPNEAKRLLHNNPALKSAVIMTLQHAGRIPLGSLPRDAYQSRRAAEAEAELAQPLPPQQPTPSQQSALPTPQQTPPQPPAESLKPAKKEARSAAKSGEARGARKRDTATGSASASAAVPSESQTSLVRPSTPMTEAERDEVLELIQSMSEEDVERVLTMSARDFAQVPDPAQRKQLEVLQKRLLVMSRDL”, “soluble”; under “MASESSIDEKKKKAQVTQSNINKNTPQQLTDKDLFGNETTLAVSEEDIQAALDGDEFRVPLNSPVILVQSGNRAPETIMQEEMRKYYTVSTFSGIPDRQKPLTCNKNKDKNENEDVASAENMNWMQALRFVAAKGHQKAIIVYQDMLQTGKYDSALKSTVWSDYKNDKLTDAISLRYLVRFTLVDVATGEWATWSPVNYEYKVLPPLPDKNEASTTDMTEQQIMQLKQKTYKAMVKDLVNRYQLEHHHHHH”, “not soluble”.
The entry for “MAKRVYLLSEARGLSRDLLGGKGHGLAEMAAAGLPVPPAFIVTTEACRQYLKAGEVPGLWGEVRAGMAALEGLTGKRFGRGEGKAPPLLVSVRSGAPVSMPGMMDTVLNLGLTLEGVEALARATGNPRFAWDSLRRLLAMYGEVVLGEGPEVFEGMLSALKAERGVGTDAALGPEDLEELAYRYLRHLEARGTPFPLDPWAQLQGAIEAVFRSWQNPRARTYRRIYGIPEDLGTAVVVQAMVFGNLGEDSGTGVGFTRNPATGEKGLYGEYLRNAQGEDVVAGVRTPEPLERLKGYAPGLYEELLQVAERLERHFRDMQDFEFTVERGRLFLLQTRAGKRTAQAAVRIAVEMAEEGLISREEAVMRVEANALPGLLRPSVDRDQAPRPLLKGLPASPGAAVGHAAFTNEAVERFHAQGLPAVLVRPETTPEDITGMYLAKGILTARGGLTSHAAVVARGLGVPAVVGAEALRVFPGEGRALAEGVEIREGDLLTLDGGTGEVYLGAVPLVEAGGEALLEKLLSWAEPHRRLGVRANADTPEDAQRARAFGAEGIGLCRTEHMFFREDRLPWVRRLILAETPEEEALALERLFHFQKEDFKEILRAMDGLPVTVRLLDPPLHEFLPPLEALARRAEEGDEEAGRLLRRAEALKEANPMLGFRGARLLLLRPGVFRMQLRALLEAARELKEAGHDPRPEVMVPLVADPKEVERARALAEELFREYGPIPFGTMVETPRAALLAAEIAPLVDFFSFGTNDLTQMAFGLSRDDAGKFLPRYVEEGLFPFDPTERLDEKGVGRLLRMAAEEGRKANPRLKLGLCGEHGGEAGSVRFVADLLDYTSASPFRVLTARLAAAQAGLSRALKPA” is “soluble”; for “MEVLGITEKALNYYRENVKDNKTITPDQALLKMIRNVLLVKETHPERVKKRLFCTEYAYGNMIIKVNRKKQVFEIVNKSGCFSDQNDWKFPKRRYIELSKELGIKDCKFRKITYSKKNHNKQKLEHHHHHH” it is “soluble”; for “VALAATRAFYWIEAQSPDAATAFAQRVFDLYFSDRLDTASPEAVSRLGPEVGLEPEALLAGIADPALKETVRKIGEDAVARGIFGSPFFLVDDEPFWGWDRMEMMAEWIRTGGW” it is “not soluble”.
On to “MSLSPAQLAAVRRSFRNGRASLTRRSLLRASAGGALAVGGLGALSACGIPAAGRTEGGVSAEDHSAEEKTINFSNWPEYIDVDDSGKRHPTLDAFAKRTGIQVKYTEDINDNDEFFGKIQPQLAAGQSTGRDLIVLTDWLAARMIRLGYVQKLDPSHLPHAFANLSDQFRAPDWDPGRAYSYPWQGISTVIAYNKKALDGVEVKSVSDLLDNPKLKGRVGFLTEMRDSVGMTMLDMGKDPAKFTDDDYDAVIARLQKAVDKGQIRRFTGNDYTSDLSKGDFAACIAWAGDIVQLQADNPDVGYVIPDSGYMTSTDNMLIPNKARHKTNAERLIDYYYELEPAAELAAYINYVSPVAGVQPYLAKIDKSAADNPLIVPDKAMQAKSHAFRSLSSKEETAYQQKFAKLTGAEGHHHHHH”, for which the “soluble on expression in E. coli” value is reported as “soluble”.
In the case of “MGSDKIHHHHHHVLIWWRGKFRRADEISLDFSLFEKSLQGAVYETLRTYSRAPFAAYKHYTRLKRSADFFNLPLSLSFDEFTKVLKAGADEFKQEVRIKVYLFPDSGEVLFVFSPLNIPDLETGVEVKISNVRRIPDLSTPPALKITGRTDIVLARREIVDCYDVILLGLNGQVCEGSFSNVFLVKEGKLITPSLDSGILDGITRENVIKLAKSLEIPVEERVVWVWELFEADEMFLTHTSAGVVPVRRLNEHSFFEEEPGPVTATLMENFEPFVLNLEENWVGI”, the “soluble on expression in E. coli” value is “soluble”.
Under “MKKIAVFADVQNLYYTVRQAYGCHFNYAALWADISKRGEIVHAFAYAIDRGDSKQQQFQQILRNLGFTVRLKPYIQRSDGSAKGEWDVGITIDIMDFAPQVDEVVLASGDGDFDMLLDRVISKHGVEAVAYGVPGLTANSLIRAASRYVPIEGALLLK” stands “not soluble”; under “MSDTTELVDLAVIFPDLEIELKYACADNITGKAIYQQARCLLHKDAITALAKSISIAQLSGLQLVIYDAYRPQQAQAMLWQACPDPQYVVDVTVGSNHSRGTAIDLTLRDEHGNILDMGAGFDEMHERSHAYHPSVPPAAQRNRLLLNAIMTGGGFVGISSEWWHFELPQAASYPLLADQFSCFISPGTQHVS”, “not soluble”.
